Test results: doi:10.1101/2025.05.16.654433
Positions count from the first letter of the chain named. Names and notes keep the numbering of the source. Blank lines part the entries; values can stand above or below the binder they belong to.

Biological target: T1, GSP-2 (C. elegans PP1 homolog), as found in the MudPIT immunoprecipitations, P48727
T1 chain: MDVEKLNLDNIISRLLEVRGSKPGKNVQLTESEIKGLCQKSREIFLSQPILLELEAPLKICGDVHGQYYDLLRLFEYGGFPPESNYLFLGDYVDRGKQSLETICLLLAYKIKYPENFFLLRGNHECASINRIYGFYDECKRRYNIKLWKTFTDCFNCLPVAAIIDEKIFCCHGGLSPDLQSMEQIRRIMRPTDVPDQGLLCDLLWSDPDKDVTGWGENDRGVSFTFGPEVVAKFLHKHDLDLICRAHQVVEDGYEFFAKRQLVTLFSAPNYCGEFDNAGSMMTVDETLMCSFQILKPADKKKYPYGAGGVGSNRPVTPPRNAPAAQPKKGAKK
Assay: MudPIT analysis of 3xflag immunoprecipitations
Settings: chain shown with the change, whole-worm lysates, parent: 10.79

- response (% of total protein) (bait recovered in same sample 0.12 (mutant) vs 0.54 (wild type) % of total protein): 0.87
B1: APE-1 (C. elegans ASPP homolog), 3xflag-tagged, as in the MudPIT immunoprecipitations, Q9XVN3 H591Y (protein)
chain: MVTTSSGGGIGYPANNGVTQVSLIHSSDSVRTVSTAPIYRPTSSMASTMAHKSSTAPFISANQRMSKPPVRVVAQPPPPHPQALSQQYHQQNPMMMYSAPNTRPHVIPTMQVQPTMAAQIKRNNPVNAQFQNPSEMIADYGVKPQSVEMVQRVRAVRRQVADEETELRRLRELEHETAQLQNKNYGRERELNVQGSMLKEAQLELRNASMRAQSLNKHLEEMYRRRQTAAAAALVEQRKMQQHQILLARAANQVSTQEVIRPRASVEPFQVNNTQQQQPSPQMMKSEEFSEKRDLNGQTGSYDAIDGSGDHQKIPTEPSYLAPCKENQQKYSELSKMASTDPHSNHSSPSTSSQKAPTLITFSPPSFEQKINSSTMTRDSPFVERPTSFGDSLDESRLRSGKTDLVSLRSDSLKATKRRSWAASEGTSMSEAEMIHRLLDEQRRGRSHFIPQLPTSQEEPSAITSETYAEEVVNSESKQVATSSDSTNNLELPTEQMVLGSDTTTEEDASSCSTRSDDGQNLEMEVAIERRTVKGILRRPNEKMNKGRIEFDPLALLLDAALEGELDLVRSSASKLTDVSQANDEGITALYNAICAGHYEIVRFLIENDADVNAQDSDGWTPLHCAASCNNLPMVRQLVEGGGCVLASTLSDMETPVEKCEEDEDGYDGCLKYLSAAHNSTGSINTGKVYAAYGYEAAFEDELSFDAGDELTVIEKDKVDKNWWTCEKNNGEKGQVPRTYLALYPSLKYRKKLNFVMFDLPLESNNNVE

- response (% of total protein) (bait recovered in same sample 0.22 (mutant) vs 0.54 (wild type) % of total protein): 0.87
B2: APE-1 (C. elegans ASPP homolog), 3xflag-tagged, as in the MudPIT immunoprecipitations, Q9XVN3 N583K (protein)
chain: B1 chain with N583K, Y591H
